Source: US20210388087A1 (Chugai, published 2021)

T1: Human CD3eg linker (human)
T1 construct: single-chain construct; also called recombinant human CD3
T1 chain: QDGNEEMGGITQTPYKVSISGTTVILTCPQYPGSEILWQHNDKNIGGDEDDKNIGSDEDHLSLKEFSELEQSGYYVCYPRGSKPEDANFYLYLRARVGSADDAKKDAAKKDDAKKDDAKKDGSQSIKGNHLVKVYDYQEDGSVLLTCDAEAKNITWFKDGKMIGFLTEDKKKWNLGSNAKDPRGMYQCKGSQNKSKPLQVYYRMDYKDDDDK


Biological target: T1, Human CD3eg linker
Assay: SPR, vs unmutated H183/L072

fold change of affinity [fold]	Binder
1	dBBDu183H K64D/dBBDu072L (antibody, name in Kabat numbering, V domains shown) VH: QVQLVESGGGLVQPGRSLRLSCAASGFTFSNAWMHWVRQAPGKGLEWVAQIKDKGNAYAAYYAPSVDGRFTISRDDSKNSIYLQMNSLKTEDTAVYYCHYVHYASASTVLPAFGVDAWGQGTTVTVSS VL: DIVMTQSPLSLPVTPGEPASISCQASQELVHMNRNTYLHWYQQKPGQAPRLLIYKVSNRFPGVPDRFSGSGSGTDFTLKISRVEAEDVGVYYCAQGTSVPFTFGQGTKLEIK
1.8	dBBDu183H L100dK/dBBDu072L (antibody, name in Kabat numbering, V domains shown) VH: QVQLVESGGGLVQPGRSLRLSCAASGFTFSNAWMHWVRQAPGKGLEWVAQIKDKGNAYAAYYAPSVKGRFTISRDDSKNSIYLQMNSLKTEDTAVYYCHYVHYASASTVKPAFGVDAWGQGTTVTVSS VL: DIVMTQSPLSLPVTPGEPASISCQASQELVHMNRNTYLHWYQQKPGQAPRLLIYKVSNRFPGVPDRFSGSGSGTDFTLKISRVEAEDVGVYYCAQGTSVPFTFGQGTKLEIK
0.7	dBBDu183H L100dE/dBBDu072L (antibody, name in Kabat numbering, V domains shown) VH: QVQLVESGGGLVQPGRSLRLSCAASGFTFSNAWMHWVRQAPGKGLEWVAQIKDKGNAYAAYYAPSVKGRFTISRDDSKNSIYLQMNSLKTEDTAVYYCHYVHYASASTVEPAFGVDAWGQGTTVTVSS VL: DIVMTQSPLSLPVTPGEPASISCQASQELVHMNRNTYLHWYQQKPGQAPRLLIYKVSNRFPGVPDRFSGSGSGTDFTLKISRVEAEDVGVYYCAQGTSVPFTFGQGTKLEIK
1	dBBDu183H L100dD/dBBDu072L (antibody, name in Kabat numbering, V domains shown) VH: QVQLVESGGGLVQPGRSLRLSCAASGFTFSNAWMHWVRQAPGKGLEWVAQIKDKGNAYAAYYAPSVKGRFTISRDDSKNSIYLQMNSLKTEDTAVYYCHYVHYASASTVDPAFGVDAWGQGTTVTVSS VL: DIVMTQSPLSLPVTPGEPASISCQASQELVHMNRNTYLHWYQQKPGQAPRLLIYKVSNRFPGVPDRFSGSGSGTDFTLKISRVEAEDVGVYYCAQGTSVPFTFGQGTKLEIK
1	dBBDu183H K64E/dBBDu072L (antibody, name in Kabat numbering, V domains shown) VH: QVQLVESGGGLVQPGRSLRLSCAASGFTFSNAWMHWVRQAPGKGLEWVAQIKDKGNAYAAYYAPSVEGRFTISRDDSKNSIYLQMNSLKTEDTAVYYCHYVHYASASTVLPAFGVDAWGQGTTVTVSS VL: DIVMTQSPLSLPVTPGEPASISCQASQELVHMNRNTYLHWYQQKPGQAPRLLIYKVSNRFPGVPDRFSGSGSGTDFTLKISRVEAEDVGVYYCAQGTSVPFTFGQGTKLEIK
0.9	dBBDu183H K64R/dBBDu072L (antibody, name in Kabat numbering, V domains shown) VH: QVQLVESGGGLVQPGRSLRLSCAASGFTFSNAWMHWVRQAPGKGLEWVAQIKDKGNAYAAYYAPSVRGRFTISRDDSKNSIYLQMNSLKTEDTAVYYCHYVHYASASTVLPAFGVDAWGQGTTVTVSS VL: DIVMTQSPLSLPVTPGEPASISCQASQELVHMNRNTYLHWYQQKPGQAPRLLIYKVSNRFPGVPDRFSGSGSGTDFTLKISRVEAEDVGVYYCAQGTSVPFTFGQGTKLEIK
1.3	dBBDu183H L100dF/dBBDu072L (antibody, name in Kabat numbering, V domains shown) VH: QVQLVESGGGLVQPGRSLRLSCAASGFTFSNAWMHWVRQAPGKGLEWVAQIKDKGNAYAAYYAPSVKGRFTISRDDSKNSIYLQMNSLKTEDTAVYYCHYVHYASASTVFPAFGVDAWGQGTTVTVSS VL: DIVMTQSPLSLPVTPGEPASISCQASQELVHMNRNTYLHWYQQKPGQAPRLLIYKVSNRFPGVPDRFSGSGSGTDFTLKISRVEAEDVGVYYCAQGTSVPFTFGQGTKLEIK
1.1	dBBDu183H K64V/dBBDu072L (antibody, name in Kabat numbering, V domains shown) VH: QVQLVESGGGLVQPGRSLRLSCAASGFTFSNAWMHWVRQAPGKGLEWVAQIKDKGNAYAAYYAPSVVGRFTISRDDSKNSIYLQMNSLKTEDTAVYYCHYVHYASASTVLPAFGVDAWGQGTTVTVSS VL: DIVMTQSPLSLPVTPGEPASISCQASQELVHMNRNTYLHWYQQKPGQAPRLLIYKVSNRFPGVPDRFSGSGSGTDFTLKISRVEAEDVGVYYCAQGTSVPFTFGQGTKLEIK
1	dBBDu183H K64Q/dBBDu072L (antibody, name in Kabat numbering, V domains shown) VH: QVQLVESGGGLVQPGRSLRLSCAASGFTFSNAWMHWVRQAPGKGLEWVAQIKDKGNAYAAYYAPSVQGRFTISRDDSKNSIYLQMNSLKTEDTAVYYCHYVHYASASTVLPAFGVDAWGQGTTVTVSS VL: DIVMTQSPLSLPVTPGEPASISCQASQELVHMNRNTYLHWYQQKPGQAPRLLIYKVSNRFPGVPDRFSGSGSGTDFTLKISRVEAEDVGVYYCAQGTSVPFTFGQGTKLEIK
1	dBBDu183H K64Y/dBBDu072L (antibody, name in Kabat numbering, V domains shown) VH: QVQLVESGGGLVQPGRSLRLSCAASGFTFSNAWMHWVRQAPGKGLEWVAQIKDKGNAYAAYYAPSVYGRFTISRDDSKNSIYLQMNSLKTEDTAVYYCHYVHYASASTVLPAFGVDAWGQGTTVTVSS VL: DIVMTQSPLSLPVTPGEPASISCQASQELVHMNRNTYLHWYQQKPGQAPRLLIYKVSNRFPGVPDRFSGSGSGTDFTLKISRVEAEDVGVYYCAQGTSVPFTFGQGTKLEIK
1.1	dBBDu183H K64T/dBBDu072L (antibody, name in Kabat numbering, V domains shown) VH: QVQLVESGGGLVQPGRSLRLSCAASGFTFSNAWMHWVRQAPGKGLEWVAQIKDKGNAYAAYYAPSVTGRFTISRDDSKNSIYLQMNSLKTEDTAVYYCHYVHYASASTVLPAFGVDAWGQGTTVTVSS VL: DIVMTQSPLSLPVTPGEPASISCQASQELVHMNRNTYLHWYQQKPGQAPRLLIYKVSNRFPGVPDRFSGSGSGTDFTLKISRVEAEDVGVYYCAQGTSVPFTFGQGTKLEIK
1	dBBDu183H K64H/dBBDu072L (antibody, name in Kabat numbering, V domains shown) VH: QVQLVESGGGLVQPGRSLRLSCAASGFTFSNAWMHWVRQAPGKGLEWVAQIKDKGNAYAAYYAPSVHGRFTISRDDSKNSIYLQMNSLKTEDTAVYYCHYVHYASASTVLPAFGVDAWGQGTTVTVSS VL: DIVMTQSPLSLPVTPGEPASISCQASQELVHMNRNTYLHWYQQKPGQAPRLLIYKVSNRFPGVPDRFSGSGSGTDFTLKISRVEAEDVGVYYCAQGTSVPFTFGQGTKLEIK
1.3	dBBDu183H K64F/dBBDu072L (antibody, name in Kabat numbering, V domains shown) VH: QVQLVESGGGLVQPGRSLRLSCAASGFTFSNAWMHWVRQAPGKGLEWVAQIKDKGNAYAAYYAPSVFGRFTISRDDSKNSIYLQMNSLKTEDTAVYYCHYVHYASASTVLPAFGVDAWGQGTTVTVSS VL: DIVMTQSPLSLPVTPGEPASISCQASQELVHMNRNTYLHWYQQKPGQAPRLLIYKVSNRFPGVPDRFSGSGSGTDFTLKISRVEAEDVGVYYCAQGTSVPFTFGQGTKLEIK
1	dBBDu183H K64S/dBBDu072L (antibody, name in Kabat numbering, V domains shown) VH: QVQLVESGGGLVQPGRSLRLSCAASGFTFSNAWMHWVRQAPGKGLEWVAQIKDKGNAYAAYYAPSVSGRFTISRDDSKNSIYLQMNSLKTEDTAVYYCHYVHYASASTVLPAFGVDAWGQGTTVTVSS VL: DIVMTQSPLSLPVTPGEPASISCQASQELVHMNRNTYLHWYQQKPGQAPRLLIYKVSNRFPGVPDRFSGSGSGTDFTLKISRVEAEDVGVYYCAQGTSVPFTFGQGTKLEIK
1.2	dBBDu183H L100dN/dBBDu072L (antibody, name in Kabat numbering, V domains shown) VH: QVQLVESGGGLVQPGRSLRLSCAASGFTFSNAWMHWVRQAPGKGLEWVAQIKDKGNAYAAYYAPSVKGRFTISRDDSKNSIYLQMNSLKTEDTAVYYCHYVHYASASTVNPAFGVDAWGQGTTVTVSS VL: DIVMTQSPLSLPVTPGEPASISCQASQELVHMNRNTYLHWYQQKPGQAPRLLIYKVSNRFPGVPDRFSGSGSGTDFTLKISRVEAEDVGVYYCAQGTSVPFTFGQGTKLEIK
1	dBBDu183H K64G/dBBDu072L (antibody, name in Kabat numbering, V domains shown) VH: QVQLVESGGGLVQPGRSLRLSCAASGFTFSNAWMHWVRQAPGKGLEWVAQIKDKGNAYAAYYAPSVGGRFTISRDDSKNSIYLQMNSLKTEDTAVYYCHYVHYASASTVLPAFGVDAWGQGTTVTVSS VL: DIVMTQSPLSLPVTPGEPASISCQASQELVHMNRNTYLHWYQQKPGQAPRLLIYKVSNRFPGVPDRFSGSGSGTDFTLKISRVEAEDVGVYYCAQGTSVPFTFGQGTKLEIK
1.3	dBBDu183H L100dH/dBBDu072L (antibody, name in Kabat numbering, V domains shown) VH: QVQLVESGGGLVQPGRSLRLSCAASGFTFSNAWMHWVRQAPGKGLEWVAQIKDKGNAYAAYYAPSVKGRFTISRDDSKNSIYLQMNSLKTEDTAVYYCHYVHYASASTVHPAFGVDAWGQGTTVTVSS VL: DIVMTQSPLSLPVTPGEPASISCQASQELVHMNRNTYLHWYQQKPGQAPRLLIYKVSNRFPGVPDRFSGSGSGTDFTLKISRVEAEDVGVYYCAQGTSVPFTFGQGTKLEIK
1	dBBDu183H K64W/dBBDu072L (antibody, name in Kabat numbering, V domains shown) VH: QVQLVESGGGLVQPGRSLRLSCAASGFTFSNAWMHWVRQAPGKGLEWVAQIKDKGNAYAAYYAPSVWGRFTISRDDSKNSIYLQMNSLKTEDTAVYYCHYVHYASASTVLPAFGVDAWGQGTTVTVSS VL: DIVMTQSPLSLPVTPGEPASISCQASQELVHMNRNTYLHWYQQKPGQAPRLLIYKVSNRFPGVPDRFSGSGSGTDFTLKISRVEAEDVGVYYCAQGTSVPFTFGQGTKLEIK
2	dBBDu183H L100dG/dBBDu072L (antibody, name in Kabat numbering, V domains shown) VH: QVQLVESGGGLVQPGRSLRLSCAASGFTFSNAWMHWVRQAPGKGLEWVAQIKDKGNAYAAYYAPSVKGRFTISRDDSKNSIYLQMNSLKTEDTAVYYCHYVHYASASTVGPAFGVDAWGQGTTVTVSS VL: DIVMTQSPLSLPVTPGEPASISCQASQELVHMNRNTYLHWYQQKPGQAPRLLIYKVSNRFPGVPDRFSGSGSGTDFTLKISRVEAEDVGVYYCAQGTSVPFTFGQGTKLEIK
1	dBBDu183H K64N/dBBDu072L (antibody, name in Kabat numbering, V domains shown) VH: QVQLVESGGGLVQPGRSLRLSCAASGFTFSNAWMHWVRQAPGKGLEWVAQIKDKGNAYAAYYAPSVNGRFTISRDDSKNSIYLQMNSLKTEDTAVYYCHYVHYASASTVLPAFGVDAWGQGTTVTVSS VL: DIVMTQSPLSLPVTPGEPASISCQASQELVHMNRNTYLHWYQQKPGQAPRLLIYKVSNRFPGVPDRFSGSGSGTDFTLKISRVEAEDVGVYYCAQGTSVPFTFGQGTKLEIK
